Assay results published in publication PMC11317151, “DNA binding and bridging by human CtIP in the healthy and diseased states” (Nucleic Acids Research, 2023).

Molecular target: the molecule itself
Assay: native gel or EMSA; native blue PAGE of purified CtIP proteins, compared with the wild type (tetramer) and CtIP-L27E (dimer) reference proteins

Protein | binding result
CtIP-L27E (natural protein, human, UniProt Q99708 1-897, looked up, CtIP, human, with the point mutation L27E in the N-terminal tetramerisation interface; Probably made like the wild type (insect cells, StrepII tag)) MNISGSSCGSPNSADTSSDFKDLWTKEKECHDREVQGLQVKVTKLKQERILDAQRLEEFFTKNQQLREQQKVLHETIKVLEDRLRAGLCDRCAVTEEHMRKKQQEFENIRQQNLKLITELMNERNTLQEENKKLSEQLQQKIENDQQHQAAELECEEDVIPDSPITAFSFSGVNRLRRKENPHVRYIEQTHTKLEHSVCANEMRKVSKSSTHPQHNPNENEILVADTYDQSQSPMAKAHGTSSYTPDKSSFNLATVVAETLGLGVQEESETQGPMSPLGDELYHCLEGNHKKQPFEESTRNTEDSLRFSDSTSKTPPQEELPTRVSSPVFGATSSIKSGLDLNTSLSPSLLQPGKKKHLKTLPFSNTCISRLEKTRSKSEDSALFTHHSLGSEVNKIIIQSSNKQILINKNISESLGEQNRTEYGKDSNTDKHLEPLKSLGGRTSKRKKTEEESEHEVSCPQASFDKENAFPFPMDNQFSMNGDCVMDKPLDLSDRFSAIQRQEKSQGSETSKNKFRQVTLYEALKTIPKGFSSSRKASDGNCTLPKDSPGEPCSQECIILQPLNKCSPDNKPSLQIKEENAVFKIPLRPRESLETENVLDDIKSAGSHEPIKIQTRSDHGGCELASVLQLNPCRTGKIKSLQNNQDVSFENIQWSIDPGADLSQYKMDVTVIDTKDGSQSKLGGETVDMDCTLVSETVLLKMKKQEQKGEKSSNEERKMNDSLEDMFDRTTHEEYESCLADSFSQAADEEEELSTATKKLHTHGDKQDKVKQKAFVEPYFKGDERETSLQNFPHIEVVRKKEERRKLLGHTCKECEIYYADMPAEEREKKLASCSRHRFRYIPPNTPENFWEVGFPSTQTCMERGYIKEDLDPCPRPKRRQPYNAIFSPKGKEQKT | binds

Molecular target: the molecule itself
Assay: SEC-MALS; Superose 6 10/300; samples of 0.5–1 mg/ml injected; 20 mM Tris–Cl pH 8.0, 200 mM NaCl, 0.5 mM TCEP

Protein | stoichiometry N
CtIP ΔN541 (domain or fragment, human, UniProt Q99708 541-897, looked up, CtIP, human, the first 540 amino acids removed (begins at residue 541); a and b are two SEC fractions (dimer and monomer peaks) of the same preparation; No tag cleavage is described in its purification; also called ΔN541a; ΔN541b; source: High-Five insect cells (baculovirus), purified (StrepTactin, MonoQ, Superose 6 SEC)) GNCTLPKDSPGEPCSQECIILQPLNKCSPDNKPSLQIKEENAVFKIPLRPRESLETENVLDDIKSAGSHEPIKIQTRSDHGGCELASVLQLNPCRTGKIKSLQNNQDVSFENIQWSIDPGADLSQYKMDVTVIDTKDGSQSKLGGETVDMDCTLVSETVLLKMKKQEQKGEKSSNEERKMNDSLEDMFDRTTHEEYESCLADSFSQAADEEEELSTATKKLHTHGDKQDKVKQKAFVEPYFKGDERETSLQNFPHIEVVRKKEERRKLLGHTCKECEIYYADMPAEEREKKLASCSRHRFRYIPPNTPENFWEVGFPSTQTCMERGYIKEDLDPCPRPKRRQPYNAIFSPKGKEQKT | 2
CtIP ΔN500 (domain or fragment, human, UniProt Q99708 500-897, looked up, CtIP, human, the first 499 amino acids removed (begins at residue 500); a and b are two SEC fractions (dimer and monomer peaks) of the same preparation; also called ΔN500a; ΔN500b; source: High-Five insect cells (baculovirus), purified (StrepTactin, MonoQ, Superose 6 SEC); not shown: StrepII, C-terminal, kept) IQRQEKSQGSETSKNKFRQVTLYEALKTIPKGFSSSRKASDGNCTLPKDSPGEPCSQECIILQPLNKCSPDNKPSLQIKEENAVFKIPLRPRESLETENVLDDIKSAGSHEPIKIQTRSDHGGCELASVLQLNPCRTGKIKSLQNNQDVSFENIQWSIDPGADLSQYKMDVTVIDTKDGSQSKLGGETVDMDCTLVSETVLLKMKKQEQKGEKSSNEERKMNDSLEDMFDRTTHEEYESCLADSFSQAADEEEELSTATKKLHTHGDKQDKVKQKAFVEPYFKGDERETSLQNFPHIEVVRKKEERRKLLGHTCKECEIYYADMPAEEREKKLASCSRHRFRYIPPNTPENFWEVGFPSTQTCMERGYIKEDLDPCPRPKRRQPYNAIFSPKGKEQKT | 2
CtIP ΔC782 (domain or fragment, human, UniProt Q99708 1-782, looked up, designed to be equivalent to the deletion of Seckel-2 syndrome; also called ΔC782 CtIP; Seckel-2 variant) MNISGSSCGSPNSADTSSDFKDLWTKLKECHDREVQGLQVKVTKLKQERILDAQRLEEFFTKNQQLREQQKVLHETIKVLEDRLRAGLCDRCAVTEEHMRKKQQEFENIRQQNLKLITELMNERNTLQEENKKLSEQLQQKIENDQQHQAAELECEEDVIPDSPITAFSFSGVNRLRRKENPHVRYIEQTHTKLEHSVCANEMRKVSKSSTHPQHNPNENEILVADTYDQSQSPMAKAHGTSSYTPDKSSFNLATVVAETLGLGVQEESETQGPMSPLGDELYHCLEGNHKKQPFEESTRNTEDSLRFSDSTSKTPPQEELPTRVSSPVFGATSSIKSGLDLNTSLSPSLLQPGKKKHLKTLPFSNTCISRLEKTRSKSEDSALFTHHSLGSEVNKIIIQSSNKQILINKNISESLGEQNRTEYGKDSNTDKHLEPLKSLGGRTSKRKKTEEESEHEVSCPQASFDKENAFPFPMDNQFSMNGDCVMDKPLDLSDRFSAIQRQEKSQGSETSKNKFRQVTLYEALKTIPKGFSSSRKASDGNCTLPKDSPGEPCSQECIILQPLNKCSPDNKPSLQIKEENAVFKIPLRPRESLETENVLDDIKSAGSHEPIKIQTRSDHGGCELASVLQLNPCRTGKIKSLQNNQDVSFENIQWSIDPGADLSQYKMDVTVIDTKDGSQSKLGGETVDMDCTLVSETVLLKMKKQEQKGEKSSNEERKMNDSLEDMFDRTTHEEYESCLADSFSQAADEEEELSTATKKLHTHGDKQDKVKQKAFVEPYFK | 4
Wild type CtIP (natural protein, human, UniProt Q99708 1-897, looked up, CtIP, human DNA repair factor, wild type, full length; the tag was probably cleaved from the wild type too; also called WT-CtIP; CtIP-WT) MNISGSSCGSPNSADTSSDFKDLWTKLKECHDREVQGLQVKVTKLKQERILDAQRLEEFFTKNQQLREQQKVLHETIKVLEDRLRAGLCDRCAVTEEHMRKKQQEFENIRQQNLKLITELMNERNTLQEENKKLSEQLQQKIENDQQHQAAELECEEDVIPDSPITAFSFSGVNRLRRKENPHVRYIEQTHTKLEHSVCANEMRKVSKSSTHPQHNPNENEILVADTYDQSQSPMAKAHGTSSYTPDKSSFNLATVVAETLGLGVQEESETQGPMSPLGDELYHCLEGNHKKQPFEESTRNTEDSLRFSDSTSKTPPQEELPTRVSSPVFGATSSIKSGLDLNTSLSPSLLQPGKKKHLKTLPFSNTCISRLEKTRSKSEDSALFTHHSLGSEVNKIIIQSSNKQILINKNISESLGEQNRTEYGKDSNTDKHLEPLKSLGGRTSKRKKTEEESEHEVSCPQASFDKENAFPFPMDNQFSMNGDCVMDKPLDLSDRFSAIQRQEKSQGSETSKNKFRQVTLYEALKTIPKGFSSSRKASDGNCTLPKDSPGEPCSQECIILQPLNKCSPDNKPSLQIKEENAVFKIPLRPRESLETENVLDDIKSAGSHEPIKIQTRSDHGGCELASVLQLNPCRTGKIKSLQNNQDVSFENIQWSIDPGADLSQYKMDVTVIDTKDGSQSKLGGETVDMDCTLVSETVLLKMKKQEQKGEKSSNEERKMNDSLEDMFDRTTHEEYESCLADSFSQAADEEEELSTATKKLHTHGDKQDKVKQKAFVEPYFKGDERETSLQNFPHIEVVRKKEERRKLLGHTCKECEIYYADMPAEEREKKLASCSRHRFRYIPPNTPENFWEVGFPSTQTCMERGYIKEDLDPCPRPKRRQPYNAIFSPKGKEQKT | 4
CtIP-R100W (natural protein, human, UniProt Q99708 1-897, looked up, CtIP, human, with the point mutation R100W that is associated with Seckel-like disease and early onset breast cancer; Expected tetramer mass is printed as 404 kDa, as for the wild type; also called R100W CtIP; source: insect cells (baculovirus, pACEBac1), purified) MNISGSSCGSPNSADTSSDFKDLWTKLKECHDREVQGLQVKVTKLKQERILDAQRLEEFFTKNQQLREQQKVLHETIKVLEDRLRAGLCDRCAVTEEHMWKKQQEFENIRQQNLKLITELMNERNTLQEENKKLSEQLQQKIENDQQHQAAELECEEDVIPDSPITAFSFSGVNRLRRKENPHVRYIEQTHTKLEHSVCANEMRKVSKSSTHPQHNPNENEILVADTYDQSQSPMAKAHGTSSYTPDKSSFNLATVVAETLGLGVQEESETQGPMSPLGDELYHCLEGNHKKQPFEESTRNTEDSLRFSDSTSKTPPQEELPTRVSSPVFGATSSIKSGLDLNTSLSPSLLQPGKKKHLKTLPFSNTCISRLEKTRSKSEDSALFTHHSLGSEVNKIIIQSSNKQILINKNISESLGEQNRTEYGKDSNTDKHLEPLKSLGGRTSKRKKTEEESEHEVSCPQASFDKENAFPFPMDNQFSMNGDCVMDKPLDLSDRFSAIQRQEKSQGSETSKNKFRQVTLYEALKTIPKGFSSSRKASDGNCTLPKDSPGEPCSQECIILQPLNKCSPDNKPSLQIKEENAVFKIPLRPRESLETENVLDDIKSAGSHEPIKIQTRSDHGGCELASVLQLNPCRTGKIKSLQNNQDVSFENIQWSIDPGADLSQYKMDVTVIDTKDGSQSKLGGETVDMDCTLVSETVLLKMKKQEQKGEKSSNEERKMNDSLEDMFDRTTHEEYESCLADSFSQAADEEEELSTATKKLHTHGDKQDKVKQKAFVEPYFKGDERETSLQNFPHIEVVRKKEERRKLLGHTCKECEIYYADMPAEEREKKLASCSRHRFRYIPPNTPENFWEVGFPSTQTCMERGYIKEDLDPCPRPKRRQPYNAIFSPKGKEQKT | 4
CtIP ΔC608 (domain or fragment, human, UniProt Q99708 1-608, looked up, designed to be equivalent to the deletion of Jawad syndrome; also called ΔC608 CtIP; Jawad variant) MNISGSSCGSPNSADTSSDFKDLWTKLKECHDREVQGLQVKVTKLKQERILDAQRLEEFFTKNQQLREQQKVLHETIKVLEDRLRAGLCDRCAVTEEHMRKKQQEFENIRQQNLKLITELMNERNTLQEENKKLSEQLQQKIENDQQHQAAELECEEDVIPDSPITAFSFSGVNRLRRKENPHVRYIEQTHTKLEHSVCANEMRKVSKSSTHPQHNPNENEILVADTYDQSQSPMAKAHGTSSYTPDKSSFNLATVVAETLGLGVQEESETQGPMSPLGDELYHCLEGNHKKQPFEESTRNTEDSLRFSDSTSKTPPQEELPTRVSSPVFGATSSIKSGLDLNTSLSPSLLQPGKKKHLKTLPFSNTCISRLEKTRSKSEDSALFTHHSLGSEVNKIIIQSSNKQILINKNISESLGEQNRTEYGKDSNTDKHLEPLKSLGGRTSKRKKTEEESEHEVSCPQASFDKENAFPFPMDNQFSMNGDCVMDKPLDLSDRFSAIQRQEKSQGSETSKNKFRQVTLYEALKTIPKGFSSSRKASDGNCTLPKDSPGEPCSQECIILQPLNKCSPDNKPSLQIKEENAVFKIPLRPRESLETENVLDDIKSAGS | 4
